Here are results for one substance from article PMC8865534.

The experiment addresses NHE1-ECL1-rIgG, the first extracellular loop of the ALV-J receptor NHE1 fused to rabbit IgG Fc (expressed in DF-1 cells) (chicken).

“Env protein (envelope glycoprotein, gp85-gp37) of ALV-J strain TBC-J6, wild type (natural protein)” showed a reduction of ALV-J infection (p27 mRNA level by qPCR) of DF-1 cells transfected with 250 ng pCAGGS-env(wt) for 2 days; the receptor is the endogenous NHE1 of DF-1 cells of 91%.
